# Measured values reported in patent US20170362301A1 (Janssen / Centocor, published 2017).
# Substitutions are numbered along the chain they refer to. Numbers in names are those of the source. Where “and” joins values, the source holds several entries; their conditions need not be identical. Equal entries are not always repeated.
# B1: P53A1R5-17 (designed binder)
# chain: LPAPKNLVVSEVTEDSLRLSWADPHGFYDSFLIQYQESEKVGEAINLTVPGSERSYDLTGLKPGTEYTVSIYGVHNVYKDTNMRGLPLSAEFTT
# B2: 83v2cy5-mal-PEG4-MMAE (designed binder)
# chain: MLPAPKNLVVSEVTEDSARLSWDDPWAFYESFLIQYQESEKVGEAIVLTVPGSERSYDLTGLKPGTEYTVSIYGVHNVYKDTNMRGLPLSAIFTTGGHHHHHHC
# modifications: mal-PEG4-MMAE on the cysteine
# B3: 83v2cy5-mal-PEG4-VC-MMAE (designed binder)
# chain: B2 chain
# modifications: mal-PEG4-VC-MMAE on the cysteine
# B4: 83v2cy5-mal-PEG4-VK-MMAE (designed binder)
# chain: B2 chain
# modifications: mal-PEG4-VK-MMAE on the cysteine
# B5: 83v2cy5-mal-PEG4-MMAF (designed binder)
# chain: B2 chain
# modifications: mal-PEG4-MMAF on the cysteine
# B6: 83v2cy5-mal-PEG4-VC-MMAF (designed binder)
# chain: B2 chain
# modifications: mal-PEG4-VC-MMAF on the cysteine
# B7: 83v2cy5-mal-PEG4-VK-MMAF (designed binder)
# chain: B2 chain
# modifications: mal-PEG4-VK-MMAF on the cysteine
# B8: P54AR4-83v2 P63C, NEM conjugate (designed binder)
# chain: B1 chain with L17A, A22D, H25W, G26A, D29E, N46V, P63C, E91I
# modifications: NEM on Cys 63
# notes: His-tagged
# B9: P54AR4-83v2 P87C, NEM conjugate (designed binder)
# chain: B1 chain with L17A, A22D, H25W, G26A, D29E, N46V, P87C, E91I
# modifications: NEM on Cys 87
# notes: His-tagged
# B10: P54AR4-83v2 Q34C, NEM conjugate (designed binder)
# chain: B1 chain with L17A, A22D, H25W, G26A, D29E, Q34C, N46V, E91I
# modifications: NEM on Cys 34
# notes: His-tagged
# B11: P54AR4-83v2 R18C, NEM conjugate (designed binder)
# chain: B1 chain with L17A, R18C, A22D, H25W, G26A, D29E, N46V, E91I
# modifications: NEM on Cys 18
# notes: His-tagged
# B12: P54AR4-83v2 R54C, NEM conjugate (designed binder)
# chain: B1 chain with L17A, A22D, H25W, G26A, D29E, N46V, R54C, E91I
# modifications: NEM on Cys 54
# notes: His-tagged
# B13: P54AR4-83v2 R84C, NEM conjugate (designed binder)
# chain: B1 chain with L17A, A22D, H25W, G26A, D29E, N46V, R84C, E91I
# modifications: NEM on Cys 84
# notes: His-tagged
# B14: P54AR4-83v2 S10C, NEM conjugate (designed binder)
# chain: B1 chain with S10C, L17A, A22D, H25W, G26A, D29E, N46V, E91I
# modifications: NEM on Cys 10
# notes: His-tagged
# B15: P54AR4-83v2 S16C, NEM conjugate (designed binder)
# chain: B1 chain with S16C, L17A, A22D, H25W, G26A, D29E, N46V, E91I
# modifications: NEM on Cys 16
# notes: His-tagged
# B16: P54AR4-83v2 S20C, NEM conjugate (designed binder)
# chain: B1 chain with L17A, S20C, A22D, H25W, G26A, D29E, N46V, E91I
# modifications: NEM on Cys 20
# notes: His-tagged
# B17: P54AR4-83v2 S30C, NEM conjugate (designed binder)
# chain: B1 chain with L17A, A22D, H25W, G26A, D29E, S30C, N46V, E91I
# modifications: NEM on Cys 30
# notes: His-tagged
# B18: P54AR4-83v2 S38C, NEM conjugate (designed binder)
# chain: B1 chain with L17A, A22D, H25W, G26A, D29E, S38C, N46V, E91I
# modifications: NEM on Cys 38
# notes: His-tagged
# B19: P54AR4-83v2 S52C, NEM conjugate (designed binder)
# chain: B1 chain with L17A, A22D, H25W, G26A, D29E, N46V, S52C, E91I
# modifications: NEM on Cys 52
# notes: His-tagged
# B20: P54AR4-83v2 S55C, NEM conjugate (designed binder)
# chain: B1 chain with L17A, A22D, H25W, G26A, D29E, N46V, S55C, E91I
# modifications: NEM on Cys 55
# notes: His-tagged
# B21: P54AR4-83v2 S70C, NEM conjugate (designed binder)
# chain: B1 chain with L17A, A22D, H25W, G26A, D29E, N46V, S70C, E91I
# modifications: NEM on Cys 70
# notes: His-tagged
# B22: P54AR4-83v2 S89C, NEM conjugate (designed binder)
# chain: B1 chain with L17A, A22D, H25W, G26A, D29E, N46V, S89C, E91I
# modifications: NEM on Cys 89
# notes: His-tagged
# B23: P54AR4-83v2 T13C, NEM conjugate (designed binder)
# chain: B1 chain with T13C, L17A, A22D, H25W, G26A, D29E, N46V, E91I
# modifications: NEM on Cys 13
# notes: His-tagged
# B24: P54AR4-83v2 T48C, NEM conjugate (designed binder)
# chain: B1 chain with L17A, A22D, H25W, G26A, D29E, N46V, T48C, E91I
# modifications: NEM on Cys 48
# notes: His-tagged
# B25: P54AR4-83v2 T59C, NEM conjugate (designed binder)
# chain: B1 chain with L17A, A22D, H25W, G26A, D29E, N46V, T59C, E91I
# modifications: NEM on Cys 59
# notes: His-tagged
# B26: P54AR4-83v2 T68C, NEM conjugate (designed binder)
# chain: B1 chain with L17A, A22D, H25W, G26A, D29E, N46V, T68C, E91I
# modifications: NEM on Cys 68
# notes: His-tagged
# B27: P54AR4-83v2 T81C, NEM conjugate (designed binder)
# chain: B1 chain with L17A, A22D, H25W, G26A, D29E, N46V, T81C, E91I
# modifications: NEM on Cys 81
# notes: His-tagged
# B28: P54AR4-83v2 T93C, NEM conjugate (designed binder)
# chain: B1 chain with L17A, A22D, H25W, G26A, D29E, N46V, E91I, T93C
# modifications: NEM on Cys 93
# notes: His-tagged
# B29: P54AR4-83v2 V8C, NEM conjugate (designed binder)
# chain: B1 chain with V8C, L17A, A22D, H25W, G26A, D29E, N46V, E91I
# modifications: NEM on Cys 8
# notes: His-tagged
# B30: P54AR4-83v2 V9C, NEM conjugate (designed binder)
# chain: B1 chain with V9C, L17A, A22D, H25W, G26A, D29E, N46V, E91I
# modifications: NEM on Cys 9
# notes: His-tagged
# B31: P54AR4-83v2 V12C, NEM conjugate (designed binder)
# chain: B1 chain with V12C, L17A, A22D, H25W, G26A, D29E, N46V, E91I
# modifications: NEM on Cys 12
# notes: His-tagged
# B32: P54AR4-83v2 V41C, NEM conjugate (designed binder)
# chain: B1 chain with L17A, A22D, H25W, G26A, D29E, V41C, N46V, E91I
# modifications: NEM on Cys 41
# notes: His-tagged
# B33: P54AR4-83v2 V46C, NEM conjugate (designed binder)
# chain: B1 chain with L17A, A22D, H25W, G26A, D29E, N46C, E91I
# modifications: NEM on Cys 46
# notes: His-tagged
# B34: P54AR4-83v2 V49C, NEM conjugate (designed binder)
# chain: B1 chain with L17A, A22D, H25W, G26A, D29E, N46V, V49C, E91I
# modifications: NEM on Cys 49
# notes: His-tagged
# B35: P54AR4-83v2 V74C, NEM conjugate (designed binder)
# chain: B1 chain with L17A, A22D, H25W, G26A, D29E, N46V, V74C, E91I
# modifications: NEM on Cys 74
# notes: His-tagged
# B36: P54AR4-83v2 V77C, NEM conjugate (designed binder)
# chain: B1 chain with L17A, A22D, H25W, G26A, D29E, N46V, V77C, E91I
# modifications: NEM on Cys 77
# notes: His-tagged
# B37: P54AR4-83v2 W25C, NEM conjugate (designed binder)
# chain: B1 chain with L17A, A22D, H25C, G26A, D29E, N46V, E91I
# modifications: NEM on Cys 25
# notes: His-tagged
# B38: P54AR4-83v2 Y28C, NEM conjugate (designed binder)
# chain: B1 chain with L17A, A22D, H25W, G26A, Y28C, D29E, N46V, E91I
# modifications: NEM on Cys 28
# notes: His-tagged
# B39: P54AR4-83v2 Y72C, NEM conjugate (designed binder)
# chain: B1 chain with L17A, A22D, H25W, G26A, D29E, N46V, Y72C, E91I
# modifications: NEM on Cys 72
# notes: His-tagged
# B40: P54AR4-83v2 Y78C, NEM conjugate (designed binder)
# chain: B1 chain with L17A, A22D, H25W, G26A, D29E, N46V, Y78C, E91I
# modifications: NEM on Cys 78
# notes: His-tagged
# Molecular target: T1, EGFR on cells (A431, NCI-H292, NCI-H322, NCI-H441) (human, UniProt P00533 25-1210)
# Test: cell-based or functional assay
row,Binder,"Phospho-EGFR IC50, A431 cells"
1,B1,> 2500 nM

# Molecular target: T1, EGFR on cells (A431, NCI-H292, …)
# Test: cell-based or functional assay
# Remark: another data set of the same source
Binder,"IC50 A431 (nM), cell viability","IC50 H1537 (nM), cell viability"
B2,> 500 nM,–
B3,315 nM,–
B4,19.6 nM,–
B5,> 1000 nM,–
B6,1.6 nM,1.19 nM and 1.05 nM
B7,3.9 nM,–

# Molecular target: T2, EGFR (form in the assay not stated) (human, UniProt P00533 25-645, limits assumed)
# Test: ELISA, NEM conjugate 10 nM
row,Binder,binding ratio vs parent P54AR4-83v2
1,B8,0.95 ratio
2,B9,0.73 ratio
3,B10,0.89 ratio
4,B11,0.86 ratio
5,B12,0.89 ratio
6,B13,0.91 ratio
7,B14,0.83 ratio
8,B15,0.88 ratio
9,B16,0.81 ratio
10,B17,0.9 ratio
11,B18,0.8 ratio
12,B19,0.78 ratio
13,B20,0 ratio
14,B21,0.86 ratio
15,B22,0.97 ratio
16,B23,0.87 ratio
17,B24,0.88 ratio

row,Binder,binding ratio vs parent P54AR4-83v2
1,B25,0.83 ratio
2,B26,0.83 ratio
3,B27,0.5 ratio
4,B28,0.96 ratio
5,B29,0.96 ratio
6,B30,0.94 ratio
7,B31,0.87 ratio
8,B32,0.92 ratio
9,B33,0.61 ratio
10,B34,0.96 ratio
11,B35,0.76 ratio
12,B36,0.03 ratio
13,B37,0.38 ratio
14,B38,0 ratio
15,B39,0.93 ratio
16,B40,0.31 ratio

# Molecular target: T2, EGFR (form in the assay not stated)
# Test: ELISA, NEM conjugate 100 nM
row,Binder,binding ratio vs parent P54AR4-83v2
1,B8,1.02 ratio
2,B9,0.93 ratio
3,B10,1.03 ratio
4,B11,1.05 ratio
5,B12,1.01 ratio
6,B13,1.04 ratio
7,B14,1.07 ratio
8,B15,1.05 ratio
9,B16,1.05 ratio
10,B17,1.02 ratio
11,B18,0.93 ratio
12,B19,1.03 ratio
13,B20,0 ratio
14,B21,1.01 ratio
15,B22,1.02 ratio
16,B23,1.04 ratio
17,B24,1 ratio

row,Binder,binding ratio vs parent P54AR4-83v2
1,B25,1.04 ratio
2,B26,1.04 ratio
3,B27,0.9 ratio
4,B28,1.05 ratio
5,B29,1.03 ratio
6,B30,1.03 ratio
7,B31,1.06 ratio
8,B32,0.99 ratio
9,B33,1.01 ratio
10,B34,1.01 ratio
11,B35,1.01 ratio
12,B36,0 ratio
13,B37,0.64 ratio
14,B38,0.01 ratio
15,B39,1 ratio
16,B40,0.63 ratio

# Molecular target: T2, EGFR (form in the assay not stated)
# Test: ELISA, NEM conjugate 500 nM
row,Binder,binding ratio vs parent P54AR4-83v2
1,B8,0.92 ratio
2,B9,0.91 ratio
3,B10,0.94 ratio
4,B11,0.94 ratio
5,B12,0.93 ratio
6,B13,0.98 ratio
7,B14,0.96 ratio
8,B15,0.63 ratio
9,B16,0.91 ratio
10,B17,0.9 ratio
11,B18,0.82 ratio
12,B19,0.93 ratio
13,B20,0.11 ratio
14,B21,0.93 ratio
15,B22,1.04 ratio
16,B23,0.9 ratio
17,B24,0.93 ratio

row,Binder,binding ratio vs parent P54AR4-83v2
1,B25,0.93 ratio
2,B26,0.95 ratio
3,B27,1.02 ratio
4,B28,1.04 ratio
5,B29,0.9 ratio
6,B30,0.93 ratio
7,B31,0.93 ratio
8,B32,0.95 ratio
9,B33,0.9 ratio
10,B34,0.98 ratio
11,B35,0.95 ratio
12,B36,0.03 ratio
13,B37,0.7 ratio
14,B38,0.09 ratio
15,B39,0.93 ratio
16,B40,0.68 ratio
